The text below walks through data of US20230190951A1, “CONJUGATES OF ANTIBODIES AN IMMUNE CELL ENGAGERS” (SYNAFFIX B.V., priority 2020, published 2023).

One assay has as its target FcRn receptor. Description: SPR (Biacore T200), FcRn on CM5 chip, steady state analysis, pH 6.0; pH 6.0.
Assay [1] addresses CD3 on the cell surface of Jurkat E6.1 cells (UniProt P07766). As to the kind of experiment: flow cytometry on Jurkat E6.1 cells, 10 nM antibody, anti-IgG1-PE; negative control. In general terms: A flow cytometer gives signals particle by particle.
Assay [2] has the same target. Description: flow cytometry on Jurkat E6.1 cells, 316 nM antibody, anti-IgG1-PE; negative control.
Assay [3] has the same target. Description: flow cytometry on Jurkat E6.1 cells, 100 nM antibody, anti-IgG1-PE; negative control.
Assay [4] has the same target. Description: flow cytometry on Jurkat E6.1 cells, 31.6 nM antibody, anti-IgG1-PE; negative control.
For assay [5] the target is unchanged. As to the kind of experiment: flow cytometry on Jurkat E6.1 cells, 1000 nM antibody, anti-IgG1-PE; negative control.
The target is the same in assay [6]. As to the kind of experiment: flow cytometry on Jurkat E6.1 cells, 0.32 nM antibody, anti-IgG1-PE; negative control.
Assay [7] shares this target. As to the kind of experiment: flow cytometry on Jurkat E6.1 cells, 3.16 nM antibody, anti-IgG1-PE; negative control.
Assay [8] shares this target. As to the kind of experiment: flow cytometry on Jurkat E6.1 cells, 1 nM antibody, anti-IgG1-PE; negative control.

CD3 on the cell surface of Jurkat E6.1 cells, sequence (P07766 23-207): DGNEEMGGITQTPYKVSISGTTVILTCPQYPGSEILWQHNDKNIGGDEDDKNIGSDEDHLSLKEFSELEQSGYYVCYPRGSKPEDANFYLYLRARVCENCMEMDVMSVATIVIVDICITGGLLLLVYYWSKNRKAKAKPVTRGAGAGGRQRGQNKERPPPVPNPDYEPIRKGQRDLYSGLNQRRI
FcRn receptor, sequence (P55899 24-297, chain 1 of 2): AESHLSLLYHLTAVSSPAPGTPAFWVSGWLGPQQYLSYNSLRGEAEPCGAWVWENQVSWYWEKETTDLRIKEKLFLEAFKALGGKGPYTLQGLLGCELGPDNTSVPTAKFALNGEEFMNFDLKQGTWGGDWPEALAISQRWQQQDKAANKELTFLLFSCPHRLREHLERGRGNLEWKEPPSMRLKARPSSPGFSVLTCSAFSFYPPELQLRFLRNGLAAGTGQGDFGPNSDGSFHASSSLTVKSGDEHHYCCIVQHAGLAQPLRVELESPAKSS
FcRn receptor, sequence (P61769 21-119, chain 2 of 2, further chain): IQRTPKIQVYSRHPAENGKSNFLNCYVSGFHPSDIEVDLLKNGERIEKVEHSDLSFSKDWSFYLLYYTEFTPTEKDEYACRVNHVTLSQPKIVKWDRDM

A word on the Kd: it is the equilibrium constant for the complex coming apart. As to Irrelevant IgG1 WT (antibody), the Kd with FcRn receptor amounted to 1740 nM. That is a single-digit micromolar value.

In the case of Rituximab (antibody), the median fluorescence intensity in assay [1] turned out to be 60.8; in assay [2], 55; in [3], 55.5; in assay [4], 58.7; in assay [5], 66.4; in assay [6] it was 58.3. Moreover, the median fluorescence intensity was found to be 55.4 in assay [7] and 56.5 in assay [8].
